Experimental data published in publication PMC7121760.

Legend:
[1] = target: α1Cx43 (connexin 43), full-length, membrane-integrated (UniProt P08050); test: sucrose gradient velocity sedimentation
[2] = target: β1Cx32 (connexin 32), full-length, membrane-integrated (UniProt P08033); test: sucrose gradient velocity sedimentation

stoichiometry N [1]	stoichiometry N [2]	Substance
6		α1Cx43 (connexin 43), full-length, membrane-integrated (from UniProt P08050 1-382) (natural protein)
	6	β1Cx32 (connexin 32), full-length, membrane-integrated (from UniProt P08033 1-283) (natural protein)
